According to PMC9352680, “A comprehensive thermodynamic model for RNA binding by the Saccharomyces cerevisiae Pumilio protein PUF4”:
Positions count from the first letter of the chain named. Numbers in names are those of the source.

T1: PUF4 RNA-binding domain (Saccharomyces cerevisiae, UniProt P25339 537-888)
T1 sequence: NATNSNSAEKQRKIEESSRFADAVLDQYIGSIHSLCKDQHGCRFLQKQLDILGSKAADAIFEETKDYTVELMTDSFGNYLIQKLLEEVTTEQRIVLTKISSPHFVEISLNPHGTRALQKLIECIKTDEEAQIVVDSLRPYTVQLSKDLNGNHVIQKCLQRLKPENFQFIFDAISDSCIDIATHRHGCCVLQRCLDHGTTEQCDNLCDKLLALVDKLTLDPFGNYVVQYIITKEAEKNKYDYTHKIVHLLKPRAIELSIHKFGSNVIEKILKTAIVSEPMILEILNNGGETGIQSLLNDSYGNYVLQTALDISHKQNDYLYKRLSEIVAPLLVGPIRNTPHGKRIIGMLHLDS

B1: Ic_S4_P4E.1_K4.1_C4.1_H4.1_A4.1_[T5C]_[A6G]_F4.1_[T8C]_[A9G]_T4.1 (ssRNA)
RNA: UUUGACAACUGAUCGUUCUUUCUUGUACGUCGUUCUUUCUCGAUCAGUUGUCUUU
B2: Ic_S4_P4E.1_K4.1_C4.1_H4.1_A4.1_[T5C]_[A6G]_F4.1_[T8C]_[A9C]_T4.1 (ssRNA)
RNA: B1 RNA with G32C
B3: Ic_S4_P4E.1_K4.1_C4.1_H4.1_A4.1_[T5C]_[A6G]_F4.1_[T8A]_[A9C]_T4.1 (ssRNA)
RNA: B1 RNA with C31A, G32C
B4: Ic_S4_P4E.1_K4.1_C4.1_H4.1_A4.1_[T5C]_[A6G]_F4.1_[T8A]_[A9T]_T4.1 (ssRNA)
RNA: B1 RNA with C31A, G32U
B5: Ic_S4_P4E.1_K4.1_C4.1_H4.1_A4.1_[T5C]_[A6G]_F4.1_[A9T]_T4.1 (ssRNA)
RNA: B1 RNA with C31U, G32U
B6: Ic_S4_P4E.1_K4.1_C4.1_H4.1_A4.1_[T5C]_[A6C]_[T7G]_F4.1_[T8G]_[A9T]_T4.1 (ssRNA)
RNA: B1 RNA with G29C, U30G, C31G, G32U
B7: Ic_S4_P4E.1_K4.1_C4.1_H4.1_A4.1_[T5C]_[A6C]_[T7G]_F4.1_[T8C]_[A9G]_T4.1 (ssRNA)
RNA: B1 RNA with G29C, U30G
B8: Ic_S4_P4E.1_K4.1_C4.1_H4.1_A4.1_[T5C]_[A6C]_[T7G]_F4.1_[T8C]_[A9C]_T4.1 (ssRNA)
RNA: B1 RNA with G29C, U30G, G32C
B9: Ic_S4_P4E.1_K4.1_C4.1_H4.1_A4.1_[T5C]_[A6C]_[T7G]_F4.1_[T8C]_[A9T]_T4.1 (ssRNA)
RNA: B1 RNA with G29C, U30G, G32U
B10: Ic_S4_P4E.1_K4.1_C4.1_H4.1_A4.1_[T5C]_[A6C]_[T7G]_F4.1_[A9T]_T4.1 (ssRNA)
RNA: B1 RNA with G29C, U30G, C31U, G32U
B11: Ic_S4_P4E.1_K4.1_C4.1_H4.1_A4.1_[T5C]_[A6C]_[T7C]_F4.1_[T8G]_[A9G]_T4.1 (ssRNA)
RNA: B1 RNA with G29C, U30C, C31G
B12: Ic_S4_P4E.1_K4.1_C4.1_H4.1_A4.1_[T5C]_[A6C]_[T7C]_F4.1_[T8G]_[A9C]_T4.1 (ssRNA)
RNA: B1 RNA with G29C, U30C, C31G, G32C
B13: Ic_S4_P4E.1_K4.1_C4.1_H4.1_A4.1_[T5C]_[A6C]_[T7C]_F4.1_[T8C]_[A9G]_T4.1 (ssRNA)
RNA: B1 RNA with G29C, U30C
B14: Ic_S4_P4E.1_K4.1_C4.1_H4.1_A4.1_[T5C]_[A6C]_[T7C]_F4.1_[T8A]_[A9C]_T4.1 (ssRNA)
RNA: B1 RNA with G29C, U30C, C31A, G32C
B15: Ic_S4_P4E.1_K4.1_C4.1_H4.1_A4.1_[T5C]_[A6C]_[T7C]_F4.1_[A9C]_T4.1 (ssRNA)
RNA: B1 RNA with G29C, U30C, C31U, G32C
B16: Ic_S4_P4E.1_K4.1_C4.1_H4.1_A4.1_[T5C]_[A6C]_[T7A]_F4.1_[T8C]_[A9T]_T4.1 (ssRNA)
RNA: B1 RNA with G29C, U30A, G32U
B17: Ic_S4_P4E.1_K4.1_C4.1_H4.1_A4.1_[T5C]_[A6C]_[T7A]_F4.1_[T8C]_T4.1 (ssRNA)
RNA: B1 RNA with G29C, U30A, G32A
B18: Ic_S4_P4E.1_K4.1_C4.1_H4.1_A4.1_[T5C]_[A6C]_[T7A]_F4.1_[T8A]_[A9T]_T4.1 (ssRNA)
RNA: B1 RNA with G29C, U30A, C31A, G32U
B19: Ic_S4_P4E.1_K4.1_C4.1_H4.1_A4.1_[T5C]_[A6C]_[T7A]_F4.1_[A9C]_T4.1 (ssRNA)
RNA: B1 RNA with G29C, U30A, C31U, G32C
B20: Ic_S4_P4E.1_K4.1_C4.1_H4.1_A4.1_[T5C]_[A6C]_[T7A]_F4.1_[A9T]_T4.1 (ssRNA)
RNA: B1 RNA with G29C, U30A, C31U, G32U
B21: Ic_S4_P4E.1_K4.1_C4.1_H4.1_A4.1_[T5C]_[A6C]_[T7A]_F4.1_T4.1 (ssRNA)
RNA: B1 RNA with G29C, U30A, C31U, G32A
B22: Ic_S4_P4E.1_K4.1_C4.1_H4.1_A4.1_[T5C]_[A6C]_F4.1_[T8G]_[A9G]_T4.1 (ssRNA)
RNA: B1 RNA with G29C, C31G
B23: Ic_S4_P4E.1_K4.1_C4.1_H4.1_A4.1_[T5C]_[A6C]_F4.1_[T8G]_[A9C]_T4.1 (ssRNA)
RNA: B1 RNA with G29C, C31G, G32C
B24: Ic_S4_P4E.1_K4.1_C4.1_H4.1_A4.1_[T5C]_[A6C]_F4.1_[T8C]_[A9C]_T4.1 (ssRNA)
RNA: B1 RNA with G29C, G32C
B25: Ic_S4_P4E.1_K4.1_C4.1_H4.1_A4.1_[T5C]_[A6C]_F4.1_[T8A]_[A9C]_T4.1 (ssRNA)
RNA: B1 RNA with G29C, C31A, G32C
B26: Ic_S4_P4E.1_K4.1_C4.1_H4.1_A4.1_[T5C]_[A6C]_F4.1_[T8A]_[A9T]_T4.1 (ssRNA)
RNA: B1 RNA with G29C, C31A, G32U

Target: T1, PUF4 RNA-binding domain
Assay: Mg; RNA-MaP; 20 mM Na-HEPES pH 7.4, 30 mM KOAc, 0.75 mM MgCl2, 0.1% Tween-20, 5% glycerol, 0.1 mg/mL BSA, 2 mM DTT; 25 C; 0.0125-409.6 nM protein
Conditions: tags: N-His6-TEV cleaved; C-SNAP kept, Cy3B-labelled; label: tethered on chip by stalled RNA polymerase

Binder | Kd
B1 | 395 nM
B2 | 35 nM
B3 | 316 nM
UCUCUUUGUACAUGAUCUCUU (ssRNA) [Ic_S1_P4E.1_K4.1_C4.1_H4.1_A4.1_[T5C]_F4.1_[T8G]_T4.1] | 20.2 nM
B4 | 30.2 nM
B5 | 11.9 nM
B6 | 2190 nM
B7 | 827 nM
B8 | 973 nM
B9 | 150 nM
B10 | 48.5 nM
B11 | 1370 nM
B12 | 1190 nM
B13 | 642 nM
UCUCUUUGUAAAUGAUCUCUU (ssRNA) [Ib_S1_P4E.1_K4.1_C4.1_H4.1_A4.1_[T5A]_F4.1_[T8G]_T4.1] | 113 nM
B14 | 1090 nM
B15 | 31.2 nM
B16 | 47.1 nM
B17 | 151 nM
B18 | 45.5 nM
B19 | 15.2 nM
B20 | 4.54 nM
B21 | 0.476 nM
B22 | 431 nM
B23 | 93 nM
UCUCUUUGUACAUCAUCUCUU (ssRNA) [Ic_S1_P4E.1_K4.1_C4.1_H4.1_A4.1_[T5C]_F4.1_[T8C]_T4.1] | 8.45 nM
B24 | 91.4 nM
B25 | 75.8 nM
B26 | 12.9 nM
